Data published in patent publication US20220282217A1 (BIONTECH US, published 2022).

B1: FELLPIPPL (peptide)
peptide: FELLPIPPL
notes: also called MYC, T58I
B2: QQQSDLQPPA (peptide)
peptide: QQQSDLQPPA
notes: also called MYC, E39D
B3: SLYIVGFYG (peptide)
peptide: SLYIVGFYG
notes: also called MEK, P124L
B4: VMAYVMAGV (peptide)
peptide: VMAYVMAGV
notes: also called HER2, G776insYVMA
B5: IANLLGACTI (peptide)
peptide: IANLLGACTI
notes: also called KIT, V654A
B6: QTGVMICAYL (peptide)
peptide: QTGVMICAYL
notes: also called PTEN, R130Q
B7: YLGNHMNIAN (peptide)
peptide: YLGNHMNIAN
notes: also called KIT, V654A
B8: IIEYCCYGDL (peptide)
peptide: IIEYCCYGDL
notes: also called KIT, T670I
B9: IIEYCFYGDL (peptide)
peptide: IIEYCFYGDL
notes: also called PDGFRa, T674I
B10: AFSGEYIPTV (peptide)
peptide: AFSGEYIPTV
notes: also called RAC1, P29S
B11: LQEFDVQEAL (peptide)
peptide: LQEFDVQEAL
notes: also called NDRG1: ERG
B12: SLYIVGFYGA (peptide)
peptide: SLYIVGFYGA
notes: also called MEK, P124L
B13: IIIEYCFYG (peptide)
peptide: IIIEYCFYG
notes: also called PDGFRa, T674I
B14: TIGGPTLVII (peptide)
peptide: TIGGPTLVII
notes: also called KIT, T670I
B15: LLQEFDVQEA (peptide)
peptide: LLQEFDVQEA
notes: also called NDRG1: ERG
B16: LLSTPPLSPS (peptide)
peptide: LLSTPPLSPS
notes: also called MYC, P57S
B17: HMNIANLLGA (peptide)
peptide: HMNIANLLGA
notes: also called KIT, V654A
B18: FSGEYIPTV (peptide)
peptide: FSGEYIPTV
notes: also called RAC1, P29S
B19: VLHESNSPYI (peptide)
peptide: VLHESNSPYI
notes: also called MEK, C121S
B20: IMSLWGLVS (peptide)
peptide: IMSLWGLVS
notes: also called NAB: STAT6 (variant 1 of Chmielecki et al.)
B21: YIIIEYCFYG (peptide)
peptide: YIIIEYCFYG
notes: also called PDGFRa, T674I
B22: QQSDLQPPA (peptide)
peptide: QQSDLQPPA
notes: also called MYC, E39D
B23: KITEQEKDFL (peptide)
peptide: KITEQEKDFL
notes: also called PIK3CA, E542K
B24: VIIEYCCYG (peptide)
peptide: VIIEYCCYG
notes: also called KIT, T670I
B25: FQNGKMALS (peptide)
peptide: FQNGKMALS
notes: also called FRG1B, L52S
B26: ALSASNSCFI (peptide)
peptide: ALSASNSCFI
notes: also called FRG1B, L52S
B27: MNIANLLGA (peptide)
peptide: MNIANLLGA
notes: also called KIT, V654A
B28: KSKKKETFKK (peptide)
peptide: KSKKKETFKK
notes: also called SEC63 (+1)
B29: KSKKKETFK (peptide)
peptide: KSKKKETFK
notes: also called SEC63 (+1)
B30: RVNTAWKTKK (peptide)
peptide: RVNTAWKTKK
notes: also called TFAM(+1)
B31: LMLLRLNLRK (peptide)
peptide: LMLLRLNLRK
notes: also called SEC31A(-1)
B32: ITTVKATETK (peptide)
peptide: ITTVKATETK
notes: also called SEC63 (+1)
B33: KRVNTAWKTK (peptide)
peptide: KRVNTAWKTK
notes: also called TFAM(+1)
B34: WSLKKVPALK (peptide)
peptide: WSLKKVPALK
notes: also called SMAP1(-1)
B35: KLMLLRLNLR (peptide)
peptide: KLMLLRLNLR
notes: also called SEC31A(-1)
B36: FVMSDTTYK (peptide)
peptide: FVMSDTTYK
notes: also called TTK(-1)
B37: KMRKKYAQK (peptide)
peptide: KMRKKYAQK
notes: also called THAP5(-1)
B38: AMTTSSSQKN (peptide)
peptide: AMTTSSSQKN
notes: also called TGFBR2(-1)
B39: KTFEKKGEK (peptide)
peptide: KTFEKKGEK
notes: also called TTK(-1)
B40: KISNWSLKKV (peptide)
peptide: KISNWSLKKV
notes: also called SMAP1(-1)
B41: SLKKVPALKK (peptide)
peptide: SLKKVPALKK
notes: also called SMAP1(-1)
B42: RVNTAWKTK (peptide)
peptide: RVNTAWKTK
notes: also called TFAM(+1)
B43: MLLRLNLRK (peptide)
peptide: MLLRLNLRK
notes: also called SEC31A(-1)
B44: RKISNWSLKK (peptide)
peptide: RKISNWSLKK
notes: also called SMAP1(-1)
B45: HLQLKSCRRK (peptide)
peptide: HLQLKSCRRK
notes: also called SMAP1(-1)
B46: KSRQNHLQLK (peptide)
peptide: KSRQNHLQLK
notes: also called SMAP1(-1)
B47: TYTCAITTVK (peptide)
peptide: TYTCAITTVK
notes: also called SEC63 (+1)
B48: LFVMSDTTYK (peptide)
peptide: LFVMSDTTYK
notes: also called TTK(-1)
B49: FVMSDTTYKI (peptide)
peptide: FVMSDTTYKI
notes: also called TTK(-1)
B50: LVRLSSCVPV (peptide)
peptide: LVRLSSCVPV
notes: also called TGFBR2(-1)
B51: GLVDEQQEV (peptide)
peptide: GLVDEQQEV
notes: also called SF3B1, K700E
B52: FALCGFWQI (peptide)
peptide: FALCGFWQI
notes: also called SLC35F5(-1)
B53: VRLSSCVPVA (peptide)
peptide: VRLSSCVPVA
notes: also called TGFBR2(-1)
B54: VMSDTTYKI (peptide)
peptide: VMSDTTYKI
notes: also called TTK(-1)
B55: SLVRLSSCV (peptide)
peptide: SLVRLSSCV
notes: also called TGFBR2(-1)
B56: YLTKWPKFFL (peptide)
peptide: YLTKWPKFFL
notes: also called XPOT(-1)
B57: ALNSEALSV (peptide)
peptide: ALNSEALSV
notes: also called TMPRSS2: ERG
B58: KSLVRLSSCV (peptide)
peptide: KSLVRLSSCV
notes: also called TGFBR2(-1)
B59: FVQGKDWGL (peptide)
peptide: FVQGKDWGL
notes: also called SPOP, F133L
B60: RLSSCVPVAL (peptide)
peptide: RLSSCVPVAL
notes: also called TGFBR2(-1)
B61: ALMSAMTTS (peptide)
peptide: ALMSAMTTS
notes: also called TGFBR2(-1)
B62: GLLAFWDSQV (peptide)
peptide: GLLAFWDSQV
notes: also called TP53, AAVG
B63: KKLMLLRLNL (peptide)
peptide: KKLMLLRLNL
notes: also called SEC31A(-1)
B64: VVPCEPPEV (peptide)
peptide: VVPCEPPEV
notes: also called TP53, Y220C
B65: ALNSEALSVV (peptide)
peptide: ALNSEALSVV
notes: also called TMPRSS2: ERG

These binders were tested against T1, HLA class I molecule A02.01 (assay: competition with radiolabeled reference peptide on purified MHC I).
T1 construct: Purified MHC class I complex; also called HLA-A02:01
Method: (§1) Peptides were incubated at varying concentrations with these complexes for 2 days, and the amount of remaining radiolabeled peptide bound to […] was measured using size exclusion gel-filtration.
Work on B1 yielded an IC50 of 553 nM. In the case of B2, the IC50 is reported as 646 nM. Work on B3 yielded an IC50 of 1060 nM. Binder B4 has an IC50 of 2 nM. B5 was tested, and the IC50 was 6420 nM. For B6, the IC50 was 9760 nM. B7 was tested, and the IC50 was 1340 nM. Work on B8 yielded an IC50 of 7310 nM. For B9, the IC50 was 1090 nM. B10 gave an IC50 of 781 nM. In the case of B11, the IC50 is reported as 50300 nM. B12 was tested, and the IC50 was 390 nM. B13 was tested, and the IC50 was 16 nM. Work on B14 yielded an IC50 of 10700 nM. Work on B15 yielded an IC50 of 45 nM. With B16 the IC50 was 1770 nM. In the case of B17, the IC50 is reported as 430 nM. B18 was tested, and the IC50 was 3 nM. B19 gave an IC50 of 131 nM. For B20, the IC50 was 7320 nM. Work on B21 yielded an IC50 of 113 nM. Work on B22 yielded an IC50 of 70 nM. Work on B23 yielded an IC50 of 1400 nM. B24 showed an IC50 of 191 nM. B25 gave an IC50 of 3280 nM. B26 gave an IC50 of 226 nM. With B27 the IC50 was 128 nM.

What follows are binders tested against T2, HLA-A03.01 (human) (assay: competition with radiolabeled reference peptide, purified MHC I).
T2 construct: Purified class I MHC
Method: as §1
Binder B28 has an IC50 of 39.6 nM. With B29 the IC50 was 74.3 nM. With B30 the IC50 was 2.3 nM. For B31, the IC50 was 6 nM. B32 showed an IC50 of 1250 nM. With B33 the IC50 was 332 nM. Binder B34 has an IC50 of 94.9 nM. B35 gave an IC50 of 48.4 nM. B36 showed an IC50 of 66.9 nM. In the case of B37, the IC50 is reported as 5.7 nM. B38 gave an IC50 of 2340 nM. For B39, the IC50 was 32.2 nM. B40 showed an IC50 of 115 nM. Work on B41 yielded an IC50 of 9.6 nM. Work on B42 yielded an IC50 of 8.6 nM. In the case of B43, the IC50 is reported as 1.3 nM. In the case of B44, the IC50 is reported as 131 nM. With B45 the IC50 was 96.9 nM. B46 was tested, and the IC50 was 4.7 nM. With B47 the IC50 was 2360 nM. B48 showed an IC50 of 749 nM.

The binders below were run against T3, HLA-A02.01 (human) in the same assay as above.
T3 construct: Purified class I MHC
Method: as §1
B49 was tested, and the IC50 was 62.4 nM. For B50, the IC50 was 1240 nM. Work on B51 yielded an IC50 of 44 nM. Work on B52 yielded an IC50 of 0.4 nM. Binder B53 has an IC50 of 1210 nM. Work on B54 yielded an IC50 of 19.6 nM. Work on B55 yielded an IC50 of 29.9 nM. B56 was tested, and the IC50 was 42.9 nM. B57 showed an IC50 of 14 nM. Work on B58 yielded an IC50 of 280 nM. B59 gave an IC50 of 34 nM. Work on B60 yielded an IC50 of 54.2 nM. Binder B61 has an IC50 of 139 nM. B62 was tested, and the IC50 was 10 nM. Work on B63 yielded an IC50 of 289 nM.

Each binder was assayed against T3, HLA-A02.01 (assay: pMHC-I dissociation half-life, 125I-b2m).
Method: (§2) Briefly, synthetic genes encoding biotinylated MHC-I heavy and light chains are expressed in E. coli and purified from inclusion bodies using standard methods. […] These reactions are carried out in streptavidin coated microplates to bind the biotinylated MHC-I heavy chains to the surface and allow measurement of radiolabeled light chain to monitor complex formation. Dissociation is initiated by addition of higher concentrations of unlabeled light-chain and incubation at 37° C. Stability is defined as the length of time in hours it takes for half of the complexes to dissociate, as measured by scintillation counts.
In the case of B51, the “Stability (T1/2 (h))” value is reported as 7.4 h. B57 was tested, and the “Stability (T1/2 (h))” value was 9.1 h. B64 was tested, and the “Stability (T1/2 (h))” value was 0.9 h. With B62 the “Stability (T1/2 (h))” value was 14.2 h. For B65, the “Stability (T1/2 (h))” value was 2.9 h.

The binders below were run against T1, HLA class I molecule A02.01 (assay: pMHC-I dissociation half-life, 125I-b2m).
Method: as §2
B1 was tested, and the “Stability (T1/2 (h))” value was 0 h. With B2 the “Stability (T1/2 (h))” value was 0 h. B3 was tested, and the “Stability (T1/2 (h))” value was 0 h. In the case of B4, the “Stability (T1/2 (h))” value is reported as 16.5 h. In the case of B5, the “Stability (T1/2 (h))” value is reported as 0 h. B6 was tested, and the “Stability (T1/2 (h))” value was 0 h. In the case of B7, the “Stability (T1/2 (h))” value is reported as 0 h. In the case of B8, the “Stability (T1/2 (h))” value is reported as 0 h. In the case of B9, the “Stability (T1/2 (h))” value is reported as 0 h. B10 was tested, and the “Stability (T1/2 (h))” value was 0 h. With B11 the “Stability (T1/2 (h))” value was 0 h. B12 was tested, and the “Stability (T1/2 (h))” value was 0.4 h. For B13, the “Stability (T1/2 (h))” value was 1.2 h. B14 was tested, and the “Stability (T1/2 (h))” value was 0 h. With B15 the “Stability (T1/2 (h))” value was 2.5 h. For B16, the “Stability (T1/2 (h))” value was 0 h. For B17, the “Stability (T1/2 (h))” value was 0 h. In the case of B18, the “Stability (T1/2 (h))” value is reported as 6.8 h. For B19, the “Stability (T1/2 (h))” value was 1.9 h. In the case of B20, the “Stability (T1/2 (h))” value is reported as 0 h. For B21, the “Stability (T1/2 (h))” value was 0 h. B22 was tested, and the “Stability (T1/2 (h))” value was 0 h. In the case of B23, the “Stability (T1/2 (h))” value is reported as 0 h. B24 was tested, and the “Stability (T1/2 (h))” value was 0.5 h. For B25, the “Stability (T1/2 (h))” value was 0 h. In the case of B26, the “Stability (T1/2 (h))” value is reported as 0.8 h. For B27, the “Stability (T1/2 (h))” value was 0.3 h.
